Source: patent US20250144207A1, “COMBINATION THERAPY COMPRISING ANTI-CCR9 ANTIBODY AND VINCRISTINE FOR CANCER” (SUNROCK BIOPHARMA S.L., priority 2022, published 2025)

T1: CCR9 (Homo sapiens, UniProt P51686)
T1 sequence (P51686 1-369): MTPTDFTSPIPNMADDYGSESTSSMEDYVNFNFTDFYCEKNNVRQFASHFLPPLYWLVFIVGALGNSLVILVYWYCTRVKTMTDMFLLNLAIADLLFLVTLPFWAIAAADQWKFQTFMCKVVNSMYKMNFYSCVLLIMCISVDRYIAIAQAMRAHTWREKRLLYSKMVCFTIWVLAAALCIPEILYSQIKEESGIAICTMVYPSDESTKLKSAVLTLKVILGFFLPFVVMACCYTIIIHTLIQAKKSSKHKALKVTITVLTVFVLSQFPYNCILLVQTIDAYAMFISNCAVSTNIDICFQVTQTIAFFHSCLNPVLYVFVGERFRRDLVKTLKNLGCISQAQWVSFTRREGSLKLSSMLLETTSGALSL

T2: CCR9 (C-C chemokine receptor type 9) (human, UniProt P51686 1-369, limits assumed)
T2 construct: also called human chemokine receptor CCR9
T2 sequence (looked up): T1 sequence (P51686 1-369)

B1: SRB1 anti-CCR9 antibody (antibody, V domains shown)
VH: EVQLVESGGGLVKPGGSLRLSCAASGFTFSKFWMNWVRQAPGKGLEWVGEIRLKSNNYATHYAESVKGRFTISRDDSKNTLYLQMNSLKTEDTAVYYCTSDGWFAYWGQGTLVTVSS
VL: DVQMTQSPSSLSASVGDRVTITCRSSQSLVHSNGNTYLNWYQQKPGKAPKLLIYKVSNRFSGVPSRFSGSGSGTDFTLTISSLQPEDFATYYCSQSTHFPRTFGGGTKVEIK
notes: also called CCR9-targeted antibody (SRB1)

Key:
[1] = tested on: MOLT4-GFP xenografts; assay: Survival of NSG mice with MOLT4-GFP xenografts, SRB1 combined with chemotherapy agents; type: in vivo; details: for Median survival: NSG mice, MOLT4-GFP i.v., SRB1 or isotype 4 mg/kg i.p. x4 weekly, vincristine 0.6 mg/kg i.v. day 5, dexamethasone 50 μg/mouse/dose days 5-9; for # censored subjects / # deaths: same survival study, 10 animals/group
[2] = molecular target: T1, CCR9; assay: CCR9 binding in the presence of CCL25, measured by flow cytometry
Excerpt: Therefore, like “91R” and “92R”, the “SRB1” is preferred for use in the treatment of a condition in which CCL25 concentration may be elevated, including in the treatment of certain cancers as described in detail herein.

[3] = molecular target: T2, CCR9 (C-C chemokine receptor type 9); assay: CCR9 binding in the presence of CCL25; no protocol given
[4] = tested on: CCR9+ lymphocyte; assay: Antibody mediated complement-dependent cytotoxicity (CDC); type: cell-based
Excerpt: The present inventors have, for example, observed antibody mediated complement-dependent cytotoxicity (CDC) utilizing anti-CCR9 antibodies such as “91R”, “92R” and “SRB1” described above.

Row | Molecule | Median survival [1] [days] | # censored subjects [1] | # deaths [1] | CCR9 binding in the presence of the ligand CCL25 [2] | binding result [3] | complement-dependent cytotoxicity (CDC) [4] | survival, given as IC50 ([1]; SRB1 at 4 mg/kg vs Control (48 days)) [days]
1 | C[C@@H]1C[C@H]2[C@@H]3CCC4=CC(=O)C=C[C@]4(C)[C@@]3(F)[C@@H](O)C[C@]2(C)[C@@]1(O)C(=O)CO [DX, dexamethasone] | 47.7 | 10 | 10 |  |  |  | 
2 | CC[C@]1(O)C[C@H]2CN(CCc3c([nH]c4ccccc34)[C@@](C(=O)OC)(c3cc4c(cc3OC)N(C=O)[C@H]3[C@@](O)(C(=O)OC)[C@H](OC(C)=O)[C@]5(CC)C=CCN6CC[C@]43[C@@H]65)C2)C1 [VX, vincristine] | 67.9 | 10 | 10 |  |  |  | 
3 | B1 | 66.2 | 10 | 10 | exhibit CCR9 binding in the presence of CCL25 | binds | observed | 70
